Values of other authors as cited in patent US20140303060A1, “PROCESS FOR DEGRADING A BIOFILM ON SURFACES OF OBJECTS” (Fraunhofer Gesellschaft Zur Foerderung der angwandten …, priority 2011, published 2014).

In the case of “lysostaphin: zinc-dependent enzyme that cleaves the pentaglycine cross bridges of the bacterial cell wall”, the “effect of repeated freezing and thawing on activity” value is given as “reduction of activity”.
